From doi:10.1101/2025.09.11.675134, “Biodistribution-Driven Discovery Identifies a Glycosidase-Cleavable Linker to Reprogram Radiotheranostics” (bioRxiv, 2025)
Where two headings read alike, the source gives them in different places.

Legend:
[1] = Ex vivo biodistribution screen of 111In-labeled DOTA-TATE derivatives in normal mice; set-up: species or system athymic nude mice; details: 2 h post-injection; for tissue uptake at 2 h: athymic nude, mouse, iv, 1 ug per mouse, total radioactivity, normal athymic nude mice, mean
Method in brief: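 DOTA-TATE variants labelled with 111In in NH4OAc pH 5.2 at 90 °C for 30 min (radiochemical yield >95%, unpurified). Healthy athymic nude mice given 1.4 – 1.8 MBq (1 μg) i.v. in PBS; nine organs assessed ex vivo at 2 hours post-injection, n = 2 – 4.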

[2] = Ex vivo biodistribution of 111In-labeled variants in AR42J xenograft mice; set-up: species or system athymic nude mice; details: athymic nude, mouse, iv, 1 ug, total radioactivity, 1 h post-injection; for tissue uptake at 1 h: AR42J tumor-bearing mice
Description: For studies involving three variants (DOTA -TATE, DOTA-MVK(ε)-TATE, and DOTA-β-Gal-TATE), AR42J cells (5 × 10^6 cells per mouse) were subcutaneously inoculated into the right shoulder of the mice. Tumors were allowed to grow for 3 weeks, reaching a volume of 100 –200 mm³ before being used in subsequent experiments. For biodistribution or PET imaging studies, mice bearing subcutaneous AR42J tumors were administered 1.4 – 1.8 MBq (1 μg) of 111In-labeled DOTA-TATE variants or 2.7 – 4.9 MBq (1 μg) of 86Y-labeled DOTA-TATE variants via tail vein injection. Biodistribution studies with 111In-labeled DOTA -TATE variants were performed 1 hour post -injection (n = 3 per cohort), while studies with 86Y-labeled DOTA-TATE variants were conducted at 1, 4, and 24 hours post -injection (n = 3 per cohort). Mice were euthanized by CO2 asphyxiation, and 10 tissues, including tumors, were collected. All samples were weighed and counted on a gamma counter (2480 Wizard 3, Perkin Elmer Inc., Waltham, MA, USA). Results are presented as percentage of injected activity per gram (%IA/g) and mean values ± standard deviations. […]

[3] = blood, i.v. 1 μg (1.4–1.8 MBq), ex vivo gamma counting, n = 2–4, read-out: Blood uptake
[4] = femur, i.v. 1 μg, ex vivo, n = 2–4, read-out: Femur uptake
[5] = heart, i.v. 1 μg, ex vivo, n = 2–4, read-out: Heart uptake
[6] = intestine, i.v. 1 μg, ex vivo, n = 2–4, read-out: Intestine uptake
[7] = liver, i.v. 1 μg, ex vivo, n = 2–4, read-out: Liver uptake
[8] = lung, i.v. 1 μg, ex vivo, n = 2–4, read-out: Lung uptake
[9] = muscle, i.v. 1 μg, ex vivo, n = 2–4, read-out: Muscle uptake
[10] = spleen, i.v. 1 μg, ex vivo, n = 2–4, read-out: Spleen uptake
[11] = blood, i.v. 1 μg (1.4–1.8 MBq), ex vivo gamma counting, mean, n = 3, read-out: Blood uptake
[12] = femur, i.v. 1 μg, ex vivo, mean, n = 3, read-out: Femur uptake
[13] = heart, i.v. 1 μg, ex vivo, mean, n = 3, read-out: Heart uptake
[14] = kidney, i.v. 1 μg, ex vivo, mean (± SD), n = 3, read-out: Kidney uptake
[15] = liver, i.v. 1 μg, ex vivo, mean, n = 3, read-out: Liver uptake
[16] = lung, i.v. 1 μg, ex vivo, mean, n = 3, read-out: Lung uptake
[17] = muscle, i.v. 1 μg, ex vivo, mean, n = 3, read-out: Muscle uptake
[18] = spleen, i.v. 1 μg, ex vivo, mean, n = 3, read-out: Spleen uptake
[19] = tumor (AR42J xenograft), i.v. 1 μg, ex vivo, mean (± SD), n = 3, read-out: Tumor uptake

| SMILES | tissue uptake at 2 h [1, 3] | tissue uptake at 2 h [1, 4] | tissue uptake at 2 h [1, 5] | tissue uptake at 2 h [1, 6] | tissue uptake at 2 h [1, 7] | tissue uptake at 2 h [1, 8] | tissue uptake at 2 h [1, 9] | tissue uptake at 2 h [1, 10] | tissue uptake at 1 h [2, 11] | tissue uptake at 1 h [2, 12] | tissue uptake at 1 h [2, 13] | tissue uptake at 1 h [2, 14] | tissue uptake at 1 h [2, 15] | tissue uptake at 1 h [2, 16] | tissue uptake at 1 h [2, 17] | tissue uptake at 1 h [2, 18] | tissue uptake at 1 h [2, 19] | Relative kidney retention, % rel. to DOTA-TATE ([1]; normal mice, 111In-DOTA-TATE set as 100%) | tissue uptake at 1 h ([2]; intestine, i.v. 1 μg, ex vivo, mean, n = 3, read-out: Intestine uptake) | tissue to tissue ratio at 1 h ([2]; tumor and kidney, AR42J xenografts, ex vivo, read-out: Tumor-to-kidney (T/K) ratio) |
| --- | --- | --- | --- | --- | --- | --- | --- | --- | --- | --- | --- | --- | --- | --- | --- | --- | --- | --- | --- | --- |
| C[C@@H](O)[C@H](NC(=O)[C@@H]1CSSC[C@H](NC(=O)[C@@H](Cc2ccccc2)NC(=O)CN2CCN(CC(=O)O)CCN(CC(=O)O)CCN(CC(=O)O)CC2)C(=O)N[C@@H](Cc2ccc(O)cc2)C(=O)N[C@H](Cc2c[nH]c3ccccc23)C(=O)N[C@@H](CCCCN)C(=O)N[C@@H]([C@@H](C)O)C(=O)N1)C(=O)O [^111In-DOTA-TATE, metal not drawn, reference compound] | 0.04 %ID/g | 0.05 %ID/g | 0.03 %ID/g | 0.51 %ID/g | 0.09 %ID/g | 0.18 %ID/g | 0.01 %ID/g | 0.06 %ID/g | 0.27 %ID/g | 0.12 %ID/g | 0.1 %ID/g | 7.33 ± 0.04 %ID/g | 0.23 %ID/g | 0.49 %ID/g | 0.06 %ID/g | 0.1 %ID/g | 5.67 ± 0.92 %ID/g | – | – | – |
| CSCC[C@H](NC(=O)CN1CCN(CC(=O)O)CCN(CC(=O)O)CCN(CC(=O)O)CC1)C(=O)N[C@H](C(=O)N[C@@H](CCCCNC(=O)CCCC(=O)N[C@H](Cc1ccccc1)C(=O)N[C@H]1CSSC[C@@H](C(=O)N[C@H](C(=O)O)[C@@H](C)O)NC(=O)[C@H]([C@@H](C)O)NC(=O)[C@H](CCCCN)NC(=O)[C@@H](Cc2c[nH]c3ccccc23)NC(=O)[C@H](Cc2ccc(O)cc2)NC1=O)C(=O)O)C(C)C [^111In-DOTA-MVK(ε)-TATE, metal not drawn] | 0.15 %ID/g | 0.31 %ID/g | 0.11 %ID/g | 0.83 %ID/g | 0.16 %ID/g | 0.33 %ID/g | 0.06 %ID/g | 0.12 %ID/g | 0.73 %ID/g | 0.55 %ID/g | 0.29 %ID/g | 5.56 ± 0.29 %ID/g | 0.31 %ID/g | 0.73 %ID/g | 0.27 %ID/g | 0.16 %ID/g | 5.44 ± 0.19 %ID/g | 67% | 0.81 %ID/g | 0.98 |
